Laboratory results from US20200199213A1 (Eli Lilly, published 2020).
Where two headings read alike, the source gives them in different places. Values belong to the binder of their own block, whether it stands above or below them.

How the values were obtained:
mouse ANGPTL3/8 complex [1] = target: T1, mouse ANGPTL3/8 complex (mouse, UniProt Q9R182 17-455; Q8R1L8 16-198, limits assumed); test: cell-based or functional assay
T1 sequence (looked up) 1: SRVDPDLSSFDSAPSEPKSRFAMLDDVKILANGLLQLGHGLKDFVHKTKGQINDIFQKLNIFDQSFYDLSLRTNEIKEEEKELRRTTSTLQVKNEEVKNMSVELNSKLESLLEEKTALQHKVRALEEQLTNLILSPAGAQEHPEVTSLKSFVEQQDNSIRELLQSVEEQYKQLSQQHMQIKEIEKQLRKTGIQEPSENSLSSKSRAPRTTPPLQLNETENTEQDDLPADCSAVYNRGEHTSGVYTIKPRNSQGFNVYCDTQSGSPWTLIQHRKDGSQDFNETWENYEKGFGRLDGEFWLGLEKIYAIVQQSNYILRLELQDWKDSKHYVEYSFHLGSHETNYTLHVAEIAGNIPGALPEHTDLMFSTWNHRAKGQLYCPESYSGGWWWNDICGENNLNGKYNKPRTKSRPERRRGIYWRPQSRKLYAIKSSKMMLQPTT
T1 sequence (looked up) 2: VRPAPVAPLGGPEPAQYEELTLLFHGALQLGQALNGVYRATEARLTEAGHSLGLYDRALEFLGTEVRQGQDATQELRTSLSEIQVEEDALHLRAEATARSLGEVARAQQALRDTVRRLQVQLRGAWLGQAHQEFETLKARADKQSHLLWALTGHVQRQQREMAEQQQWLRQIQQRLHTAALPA

human ANGPTL3/8 complex [2] = target: T2, human ANGPTL3/8 complex (human, UniProt Q9Y5C1 17-460; Q6UXH0 22-198, limits assumed); test: cell-based or functional assay
T2 sequence 1: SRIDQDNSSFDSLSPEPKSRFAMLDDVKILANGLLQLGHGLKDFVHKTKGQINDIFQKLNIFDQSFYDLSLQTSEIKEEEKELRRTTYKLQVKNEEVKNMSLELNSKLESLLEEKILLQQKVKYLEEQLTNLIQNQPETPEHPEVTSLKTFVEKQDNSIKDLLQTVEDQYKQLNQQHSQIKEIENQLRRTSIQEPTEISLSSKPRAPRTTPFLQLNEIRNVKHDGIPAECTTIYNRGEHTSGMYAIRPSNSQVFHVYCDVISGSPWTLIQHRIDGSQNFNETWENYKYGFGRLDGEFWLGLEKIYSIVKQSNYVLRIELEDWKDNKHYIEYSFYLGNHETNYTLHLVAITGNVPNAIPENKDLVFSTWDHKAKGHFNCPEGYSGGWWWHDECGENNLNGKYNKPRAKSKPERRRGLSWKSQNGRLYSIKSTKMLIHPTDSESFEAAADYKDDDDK
T2 sequence 2: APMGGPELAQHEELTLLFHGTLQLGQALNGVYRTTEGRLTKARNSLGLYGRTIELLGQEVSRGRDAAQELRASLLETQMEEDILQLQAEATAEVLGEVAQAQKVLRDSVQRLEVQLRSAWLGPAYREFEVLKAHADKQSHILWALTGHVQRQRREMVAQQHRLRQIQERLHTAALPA

rat ANGPTL3/8 complex = rat ANGPTL3/8 complex (rat, UniProt F7FHP0 17-446); test: cell-based or functional assay
Chain of rat ANGPTL3/8 complex (F7FHP0 entry or part of it, one chain of several): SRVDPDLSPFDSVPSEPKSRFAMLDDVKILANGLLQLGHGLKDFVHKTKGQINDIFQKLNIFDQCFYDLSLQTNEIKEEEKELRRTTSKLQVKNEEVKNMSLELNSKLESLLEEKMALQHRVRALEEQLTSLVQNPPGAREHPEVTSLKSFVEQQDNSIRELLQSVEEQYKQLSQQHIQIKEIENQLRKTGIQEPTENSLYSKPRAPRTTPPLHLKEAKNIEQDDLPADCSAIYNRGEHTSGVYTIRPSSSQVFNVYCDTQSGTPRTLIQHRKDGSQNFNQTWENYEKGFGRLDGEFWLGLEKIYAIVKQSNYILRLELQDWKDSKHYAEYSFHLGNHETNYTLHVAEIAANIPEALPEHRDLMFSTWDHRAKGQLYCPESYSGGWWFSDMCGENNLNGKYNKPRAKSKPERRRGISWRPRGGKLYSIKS

[3] = target: T3, cynomolgus ANGPTL3/8 complex (cynomolgus, UniProt A0A2K5UDC5 17-460; A0A2K5WWS3 22-198); test: cell-based or functional assay
T3 sequence 1: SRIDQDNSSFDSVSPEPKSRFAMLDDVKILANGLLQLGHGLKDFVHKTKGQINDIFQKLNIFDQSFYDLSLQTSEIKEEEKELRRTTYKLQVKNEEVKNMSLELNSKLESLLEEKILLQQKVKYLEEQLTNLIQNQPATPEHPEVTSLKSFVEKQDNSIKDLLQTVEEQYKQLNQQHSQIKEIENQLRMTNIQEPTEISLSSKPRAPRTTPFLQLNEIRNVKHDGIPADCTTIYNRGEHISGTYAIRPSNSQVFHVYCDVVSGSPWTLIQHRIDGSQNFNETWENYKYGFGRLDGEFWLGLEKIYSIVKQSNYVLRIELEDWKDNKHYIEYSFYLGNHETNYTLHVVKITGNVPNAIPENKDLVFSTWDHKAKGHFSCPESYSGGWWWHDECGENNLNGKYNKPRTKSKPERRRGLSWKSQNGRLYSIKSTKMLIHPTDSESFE
T3 sequence 2: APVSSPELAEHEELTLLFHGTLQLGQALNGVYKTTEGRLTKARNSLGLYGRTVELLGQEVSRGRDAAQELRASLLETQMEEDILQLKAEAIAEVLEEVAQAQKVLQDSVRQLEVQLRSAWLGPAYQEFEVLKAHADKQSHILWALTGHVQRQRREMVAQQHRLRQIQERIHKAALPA

mouse ANGPTL3/8 complex [4] = target: T1, mouse ANGPTL3/8 complex; test: SPR, Biacore T200; Ab captured on Human Fab Binder, complex injected; pH 7.4, 25 C
human ANGPTL3/8 complex [5] = target: T2, human ANGPTL3/8 complex; test: as above
[6] = target: T3, cynomolgus ANGPTL3/8 complex; test: as above
mouse ANGPTL3/8 complex [7] = target: T1, mouse ANGPTL3/8 complex; test: as above; remark: listed apart in the source
[8] = target: T3, cynomolgus ANGPTL3/8 complex; test: as above; remark: listed apart in the source

% Max Derepression of LPL (mouse ANGPTL3/8 complex [1]): 103%
Ab EC50 (nM), derepression of LPL (mouse ANGPTL3/8 complex [1]): 1.38 nM
% Max Derepression of LPL (human ANGPTL3/8 complex [2]): 102%
Ab EC50 (nM), derepression of LPL (human ANGPTL3/8 complex [2]): 0.28 nM
% Max Derepression of LPL (rat ANGPTL3/8 complex): 105%
Ab EC50 (nM), derepression of LPL (rat ANGPTL3/8 complex): 2.77 nM
% Max Derepression of LPL [3]: 96%
Ab EC50 (nM), derepression of LPL [3]: 1.31 nM
B1: anti-ANGPTL3/8 complex Ab having a LC of SEQ ID NO:5 and a HC of SEQ ID NO:6 (antibody, human IgG4 S228P, kappa, F234A L235A, V domains shown)
VH: QVTLKESGPTLVKPTQTLTLTCTFSGFSLSISGVGVGWIRQPPGKALEWLALIYRNDDKRYSPSLKSRLTITKDTSKNQVVLTLTNMDPVDTATYYCARTYSSGWYGNWFDPWGQGTLVTVSS
VL: DIVMTQTPLSLPVTPGEPASISCRSSQSLLDSDDGNTYLDWYLQKPGQSPQLLIYMLSYRASGVPDRFSGSGSGTDFTLKISRVEAEDVGIYYCMQRIEFPLTFGGGTKVEIKR
notes: In the ELISA assays tested as IgG from CHO supernatants; also called the Ab

Kd (mouse ANGPTL3/8 complex [4]): 254 pM
koff (mouse ANGPTL3/8 complex [4]): 0.000151 s⁻¹
kon (mouse ANGPTL3/8 complex [4]): 596000 M⁻¹ s⁻¹
Kd (human ANGPTL3/8 complex [5]): 48.4 pM
koff (human ANGPTL3/8 complex [5]): 3.26e-05 s⁻¹
kon (human ANGPTL3/8 complex [5]): 674000 M⁻¹ s⁻¹
Kd [6]: 116 pM
koff [6]: 7.23e-05 s⁻¹
kon [6]: 620000 M⁻¹ s⁻¹
B2: Ab with LC variant having a E99Q mutation (SEQ ID NO:25) and a HC of SEQ ID NO:6 (antibody, human IgG4 S228P, kappa, F234A L235A, V domains shown)
VH: QVTLKESGPTLVKPTQTLTLTCTFSGFSLSISGVGVGWIRQPPGKALEWLALIYRNDDKRYSPSLKSRLTITKDTSKNQVVLTLTNMDPVDTATYYCARTYSSGWYGNWFDPWGQGTLVTVSS
VL: DIVMTQTPLSLPVTPGEPASISCRSSQSLLDSDDGNTYLDWYLQKPGQSPQLLIYMLSYRASGVPDRFSGSGSGTDFTLKISRVEAEDVGIYYCMQRIQFPLTFGGGTKVEIKR
notes: also called E99Q Variant Ab; E99Q Ab

Kd (mouse ANGPTL3/8 complex [7]): 680 pM
koff (mouse ANGPTL3/8 complex [7]): 0.000347 s⁻¹
kon (mouse ANGPTL3/8 complex [7]): 515000 M⁻¹ s⁻¹
Kd [8]: 609 pM
koff [8]: 0.000265 s⁻¹
kon [8]: 435000 M⁻¹ s⁻¹
B3: Ab with LC variant having a D33A mutation (SEQ ID NO:22) and a HC of SEQ ID NO:6 (antibody, human IgG4 S228P, kappa, F234A L235A, V domains shown)
VH: QVTLKESGPTLVKPTQTLTLTCTFSGFSLSISGVGVGWIRQPPGKALEWLALIYRNDDKRYSPSLKSRLTITKDTSKNQVVLTLTNMDPVDTATYYCARTYSSGWYGNWFDPWGQGTLVTVSS
VL: DIVMTQTPLSLPVTPGEPASISCRSSQSLLDSADGNTYLDWYLQKPGQSPQLLIYMLSYRASGVPDRFSGSGSGTDFTLKISRVEAEDVGIYYCMQRIEFPLTFGGGTKVEIKR
notes: also called D33A Variant Ab; D33A Ab
